In article PMC545800:
No end group written: not given here.

What was measured:
[1] = target: T1, tetratricopeptide repeat (TPR) domain of S. cerevisiae PEX5 (Gal4pBD-TPR, plasmid pAH987) (S. cerevisiae); assay: two-hybrid; yeast strain PCY3 co-transformed with Gal4pAD-16mer (pGAD.GH) and Gal4pBD-TPR of PEX5 (pAH987 yeast or hP87 human); quantitative beta-galactosidase activity, cells grown in SC-leu-trp at 30°C; lower limit of around 10 Miller Units per mg protein for a productive interaction
T1 sequence (P35056 whole entry, looked up): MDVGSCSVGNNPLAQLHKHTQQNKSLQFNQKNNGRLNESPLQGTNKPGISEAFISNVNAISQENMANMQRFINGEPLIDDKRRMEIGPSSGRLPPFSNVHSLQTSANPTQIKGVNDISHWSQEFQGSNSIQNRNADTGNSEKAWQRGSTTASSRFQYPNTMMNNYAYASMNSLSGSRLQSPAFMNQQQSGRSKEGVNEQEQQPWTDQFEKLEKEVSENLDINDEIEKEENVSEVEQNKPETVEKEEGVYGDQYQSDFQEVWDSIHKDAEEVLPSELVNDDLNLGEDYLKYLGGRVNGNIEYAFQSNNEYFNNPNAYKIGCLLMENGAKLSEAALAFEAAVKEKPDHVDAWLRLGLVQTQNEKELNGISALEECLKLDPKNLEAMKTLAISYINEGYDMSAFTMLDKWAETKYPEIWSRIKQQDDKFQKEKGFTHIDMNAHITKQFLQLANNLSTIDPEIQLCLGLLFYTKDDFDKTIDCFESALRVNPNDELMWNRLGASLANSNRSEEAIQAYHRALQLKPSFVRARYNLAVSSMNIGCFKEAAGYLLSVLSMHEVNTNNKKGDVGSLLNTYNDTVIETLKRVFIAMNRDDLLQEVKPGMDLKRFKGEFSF

[2] = target: tetratricopeptide repeat (TPR) domain of human PEX5 (Gal4pBD-TPR, plasmid hP87) (Homo sapiens); assay: as above

**Q.** How did the beta-galactosidase activity (Units/mg protein) [1] turn out when “carboxy-terminal 16-mer of yeast mitochondrial ribosomal protein L2, or MRP7 (Gal4pAD-16mer) (peptide)” was run?
**A.** Its beta-galactosidase activity (Units/mg protein) is 482.

B1: carboxy-terminal 16-mer of dog lysozyme C from milk (Gal4pAD-16mer) (peptide)
chain: HCKGKDLSKYLASCNL
**Q.** How did the beta-galactosidase activity (Units/mg protein) [2] turn out when B1 was run?
**A.** Its beta-galactosidase activity (Units/mg protein) is 25.

B2: carboxy-terminal 16-mer of Escherichia coli glutamate-1-semialdehyde 2,1-aminomutase (Gal4pAD-16mer) (peptide)
chain: DINNTIDAARRVFAKL
modifications: not fully specified (N-terminus)
**Q.** For B2, which beta-galactosidase activity (Units/mg protein) [1] is on record?
**A.** The beta-galactosidase activity (Units/mg protein) was 270.

**Q.** What about the beta-galactosidase activity (Units/mg protein) [2] of the same molecule?
**A.** The beta-galactosidase activity (Units/mg protein) was 473.

B3: carboxy-terminal 16-mer of E. coli transaldolase A (Gal4pAD-16mer) (peptide)
chain: FAVDQRKLEDLLAAKL
**Q.** B3 was tested. Which beta-galactosidase activity (Units/mg protein) [1] did it give?
**A.** The beta-galactosidase activity (Units/mg protein) was 164.

**Q.** And the beta-galactosidase activity (Units/mg protein) [2]?
**A.** Its beta-galactosidase activity (Units/mg protein) is 566.

B4: carboxy-terminal 16-mer of Methanopyrus kandleri riboflavin synthase (Gal4pAD-16mer) (peptide)
chain: GMGRREGHPDVGPARL
**Q.** Which results are given for B4?
**A.** beta-galactosidase activity (Units/mg protein) [1]: 45; beta-galactosidase activity (Units/mg protein) [2]: 358

B5: carboxy-terminal 16-mer of Archaeoglobus fulgidus 2-nitropropane dioxygenase (Gal4pAD-16mer) (peptide)
chain: EEVIRKIAEGLNKAKF
modifications: not fully specified (N-terminus)
**Q.** B5 was tested. Which beta-galactosidase activity (Units/mg protein) [1] did it give?
**A.** Its beta-galactosidase activity (Units/mg protein) is 206.

B6: carboxy-terminal 16-mer of Drosophila sevenless protein (Gal4pAD-16mer) (peptide)
chain: PLKDKQLYANEGVSRL
modifications: not fully specified (N-terminus)
**Q.** With B6 as the molecule, how does the beta-galactosidase activity (Units/mg protein) [2] read?
**A.** Its beta-galactosidase activity (Units/mg protein) is 29.

B7: carboxy-terminal 16-mer of hen egg-white lysozyme (Gal4pAD-16mer) (peptide)
chain: RCKGTDVQAWIRGCRL
**Q.** How did the beta-galactosidase activity (Units/mg protein) [2] turn out when B7 was run?
**A.** The beta-galactosidase activity (Units/mg protein) was 73.

B8: carboxy-terminal 16-mer of frog tyrosinase (Gal4pAD-16mer) (peptide)
chain: LLMEAEDYQATYQSNL
**Q.** With B8 as the molecule, how does the beta-galactosidase activity (Units/mg protein) [2] read?
**A.** The beta-galactosidase activity (Units/mg protein) was 91.

B9: carboxy-terminal 16-mer of human tyrosinase (Gal4pAD-16mer) (peptide)
chain: LLMEKEDYHSLYQSHL
**Q.** With B9 as the molecule, how does the beta-galactosidase activity (Units/mg protein) [2] read?
**A.** The beta-galactosidase activity (Units/mg protein) was 242.

B10: carboxy-terminal 16-mer of the precursor of lysosomal bovine cathepsin D (Gal4pAD-16mer) (peptide)
chain: FDRDQNRVGLAEAARL
modifications: not fully specified (N-terminus)
**Q.** How did the beta-galactosidase activity (Units/mg protein) [2] turn out when B10 was run?
**A.** Its beta-galactosidase activity (Units/mg protein) is 310.

B11: carboxy-terminal 16 residues of the DHFR-SKL construct (Gal4pAD-16mer) (peptide)
chain: EKGIKYKFEVYEKSKL
**Q.** For B11, which beta-galactosidase activity (Units/mg protein) [1] is on record?
**A.** Its beta-galactosidase activity (Units/mg protein) is 195.
